Data set [1] concerns the molecule itself. The experiment in a line: yeast two-hybrid, EPYC1 in both the binding domain and the activation domain vector. As to the method: (§1) Competent yeast cells (Y2H Gold, Clontech) were prepared from a 50 ml culture grown in YPDA medium supplemented with kanamycin (50 μg ml⁻¹). Cells were washed with ddH2O and a lithium acetate/TE solution (100 mM LiAc, 10 mM Tris-HCl [pH 7.5], 1 mM EDTA) before re-suspending in lithium acetate/TE solution. Cells were then co-transformed with binding and activation domain vectors by mixing 50 μl of competent cells with 1 μg of each plasmid vector and a PEG solution (100 mM LiAc, 10 mM Tris-HCl [pH 7.5], 1 mM EDTA, 40% [v/v] PEG 4000). Cells were incubated at 30° C. for 30 min, then subjected to a heat shock of 42° C. for 20 min. The cells were centrifuged, re-suspended in 500 μl YPDA and incubated at 30° C. for ca 90 min, then centrifuged and washed in TE (10 mM Tris-HCl [pH 7.5], 1 mM EDTA). […] The following day 1 ml of culture was harvested, cell density (OD₆₀₀) measured, centrifuged and then diluted in TE to give a final OD₆₀₀ of 0.5 or 0.1.
(§2) Yeast cultures were then plated onto SD-L-W (yeast synthetic minimal media lacking leucine (L) and tryptophan (W)) and SD-L-W-H (yeast synthetic minimal media lacking L, W, and histidine(H)) (Anachem). […] These plates were then incubated for 3 days before assessing for presence or absence of growth, to perform a semi-quantitative yeast two-hybrid assay as in van Nues and Beggs (van Nues and Beggs, Genetics (2000) 157: 1451-1467). […]

Data set [2] has as its target T1, 1AAtMOD (α-helices, β-sheets and loop): A. thaliana SSU 1A with α-helices, β-sheets and βA-βB loop replaced … (Arabidopsis thaliana with parts of …).
T1 construct: also called 1AAtMod (α-helices, β-sheet and loop); pGADT7_1AAtMOD(α-helices + β-sheets + loop)
T1 chain: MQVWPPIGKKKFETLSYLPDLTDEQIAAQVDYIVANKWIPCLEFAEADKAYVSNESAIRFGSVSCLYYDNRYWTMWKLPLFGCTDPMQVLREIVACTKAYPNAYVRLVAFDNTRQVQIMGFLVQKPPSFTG
The experiment in a line: yeast two-hybrid (FIG. 3C). As to the method: (§3) The following day 1 ml of culture was harvested, cell density (OD₆₀₀) measured, centrifuged and then diluted in TE to give a final OD₆₀₀ of 0.5 or 0.1.
(§4) Yeast cultures were then plated onto SD-L-W (yeast synthetic minimal media lacking leucine (L) and tryptophan (W)) and SD-L-W-H (yeast synthetic minimal media lacking L, W, and histidine(H)) (Anachem). Yeast expressing both binding and activation domain constructs was grown on SD-L-W to confirm presence of both plasmids. To assess interaction strength, yeast was plated onto SD-L-W-H with differing concentrations of the HIS3 inhibitor 3-aminotriazole (3-AT). These plates were then incubated for 3 days before assessing for presence or absence of growth, to perform a semi-quantitative yeast two-hybrid assay as in van Nues and Beggs (van Nues and Beggs, Genetics (2000) 157: 1451-1467). The same yeast transformation was used for each interaction study. Different colonies on the same yeast transformation plate were considered independent biological replicates (as for E. coli). Two biological replicates (top and bottom row for each interaction) were spotted from different liquid culture concentrations (0.5 and 0.1 OD). Each interaction experiment was performed at least twice.
(§5) Interactions were only observed between EPYC1 and chimeric 1AAt with the two α-helices from the C. reinhardtii SSU (FIG. 3C). The S1Cr 1AAt with the S1Cr α-helices alone produced a minimal interaction (i.e., on 0 mM 3-AT), which was strengthened by the incorporation of the β-sheets and the βA-βB loop from S1Cr.

Data set [3] addresses T2, 1AAtMOD (loop): A. thaliana SSU 1A with βA-βB loop replaced with C. reinhardtii βA-βB loop (Arabidopsis thaliana with parts of …).
T2 construct: also called pGADT7_1AAtMOD(loop)
T2 chain: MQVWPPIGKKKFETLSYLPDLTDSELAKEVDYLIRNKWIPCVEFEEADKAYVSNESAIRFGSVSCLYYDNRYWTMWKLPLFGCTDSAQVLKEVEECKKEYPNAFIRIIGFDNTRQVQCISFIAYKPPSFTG
The data set is described as follows: yeast two-hybrid (FIG. 3C). As to the method:
as §3, §4, §5

Data set [4] concerns the target T3, 1AAtMOD (β-sheets and loop): A. thaliana SSU 1A with β-sheets and βA-βB loop replaced with those of C. … (Arabidopsis thaliana with parts of …).
T3 construct: also called 1AAtMod (β-sheet and loop); pGADT7_1AAtMOD(β-sheets + loop)
T3 chain: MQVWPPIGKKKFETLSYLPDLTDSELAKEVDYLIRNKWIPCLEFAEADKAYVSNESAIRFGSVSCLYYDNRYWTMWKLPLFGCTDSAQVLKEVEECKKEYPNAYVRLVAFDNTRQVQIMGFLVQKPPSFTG
The data set is described as follows: yeast two-hybrid (FIG. 3C). As to the method: as §3, §4, §5

Data set [5] has as its target T4, 1AAtMOD (α-helices and β-sheets): A. thaliana SSU 1A with α-helices and β-sheets replaced with those of C. … (Arabidopsis thaliana with parts of …).
T4 construct: also called pGADT7_1AAtMOD(α-helices + β-sheets)
T4 chain: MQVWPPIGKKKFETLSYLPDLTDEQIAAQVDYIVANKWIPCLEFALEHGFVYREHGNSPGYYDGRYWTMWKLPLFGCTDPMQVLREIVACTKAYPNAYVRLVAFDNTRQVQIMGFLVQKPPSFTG
The experiment in a line: yeast two-hybrid (FIG. 3C). As to the method: as §3, §4, §5

The target of data set [6] is T5, 1AAtMOD (β-sheets): A. thaliana SSU 1A with β-sheets replaced with C. reinhardtii β-sheets (Arabidopsis thaliana with parts of …).
T5 construct: also called pGADT7_1AAtMOD(β-sheets)
T5 chain: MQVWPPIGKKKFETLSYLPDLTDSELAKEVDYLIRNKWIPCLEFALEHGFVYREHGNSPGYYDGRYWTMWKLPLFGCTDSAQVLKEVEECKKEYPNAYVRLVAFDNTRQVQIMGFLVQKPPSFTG
The data set is described as follows: yeast two-hybrid (FIG. 3C). As to the method:
as §3, §4, §5

In data set [7] the target is A. thaliana Rubisco small subunit 1A (1AAt), mature (Arabidopsis thaliana, UniProt P10795 56-180). The data set is described as follows: yeast two-hybrid, growth on SD-L-W-H with 3-AT. As to the method: as §1, §2
Data set [8] deals with T6, A. thaliana CP12-2 (AtCP12) (Arabidopsis thaliana, UniProt Q9LZP9 54-131, limits assumed).
T6 construct: also called AT3G62410; pGADT7_CP12
T6 sequence (looked up): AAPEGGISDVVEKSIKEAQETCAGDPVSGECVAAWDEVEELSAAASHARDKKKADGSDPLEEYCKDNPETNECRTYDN
The data set is described as follows: yeast two-hybrid. As to the method: as §1, §2

B1: Essential Pyrenoid Component 1 (EPYC1), full-length, C. reinhardtii (other)
chain: MATISSMRVGAASRVVVSGRVKTVKVAARGSWRESSTATVQASRASSATNRVSPTRSVLPANWRQELESLRNGNGSSSAASSAPAPARSSSASWRDAAPASSAPARSSSASKKAVTPSRSALPSNWKQELESLRSSSPAPASSAPAPARSSSASWRDAAPASSAPARSSSSKKAVTPSRSALPSNWKQELESLRSSSPAPASSAPAPARSSSASWRDAAPASSAPARSSSASKKAVTPSRSALPSNWKQELESLRSNSPAPASSAPAPARSSSASWRDAPASSSSSSADKAGTNPWTGKSKPEIKRTALPADWRKGL
notes: also called Cre10.g436550.t1.2; pGBKT7_EPYC1
For B1, the binding result in data set [1] is “no binding”; in data set [2], “binds”; in data set [3], “no binding”; in data set [4], “no binding”; in data set [5], “binds”; in data set [6] it was “no binding”. Moreover, the binding result in data set [7] and in data set [8] was “no binding” each time.

For the origin of these results see patent publication US20220282268A1 (UNIVERSITY COURT OF THE UNIVERSITY OF EDINBURGH, published 2022).
